Measured values published in article doi:10.1101/2024.08.19.608718, “The structural basis for RNA slicing by human Argonaute2”.

Molecular target: HsAGO2 D669A (catalytically dead) (Homo sapiens, UniProt Q9UKV8 1-859, D669A)
Test: cryo-EM (3.3 A); 1 mM Mg2+; one Mg modelled; Dissociation filter binding: 17.6 mM HEPES pH 7.4, 97.8 mM KOAc, 0.978 mM Mg(OAc)2, 5 mM DTT, BSA, yeast tRNA, 0.01% IGEPAL, 1.6% glycerol, 37 C; cryo-EM complex: 50 mM Tris pH 7.5, 150 mM NaCl, 1 mM MgCl2, 2% glycerol, 0.5 mM TCEP (target bound at 25 C in 10% glycerol)
Conditions: protein: recombinant; tags: 3xFLAG-SUMOEu1, cleaved off by SENPEuB; label: biotin on target 3' end (click, diazo biotin azide); guide-target paired from g2 to g22; target overhangs 5' 3 nt and 3' 3 nt; g1 not paired

Chain of HsAGO2 D669A (catalytically dead) (Q9UKV8 whole entry D669A): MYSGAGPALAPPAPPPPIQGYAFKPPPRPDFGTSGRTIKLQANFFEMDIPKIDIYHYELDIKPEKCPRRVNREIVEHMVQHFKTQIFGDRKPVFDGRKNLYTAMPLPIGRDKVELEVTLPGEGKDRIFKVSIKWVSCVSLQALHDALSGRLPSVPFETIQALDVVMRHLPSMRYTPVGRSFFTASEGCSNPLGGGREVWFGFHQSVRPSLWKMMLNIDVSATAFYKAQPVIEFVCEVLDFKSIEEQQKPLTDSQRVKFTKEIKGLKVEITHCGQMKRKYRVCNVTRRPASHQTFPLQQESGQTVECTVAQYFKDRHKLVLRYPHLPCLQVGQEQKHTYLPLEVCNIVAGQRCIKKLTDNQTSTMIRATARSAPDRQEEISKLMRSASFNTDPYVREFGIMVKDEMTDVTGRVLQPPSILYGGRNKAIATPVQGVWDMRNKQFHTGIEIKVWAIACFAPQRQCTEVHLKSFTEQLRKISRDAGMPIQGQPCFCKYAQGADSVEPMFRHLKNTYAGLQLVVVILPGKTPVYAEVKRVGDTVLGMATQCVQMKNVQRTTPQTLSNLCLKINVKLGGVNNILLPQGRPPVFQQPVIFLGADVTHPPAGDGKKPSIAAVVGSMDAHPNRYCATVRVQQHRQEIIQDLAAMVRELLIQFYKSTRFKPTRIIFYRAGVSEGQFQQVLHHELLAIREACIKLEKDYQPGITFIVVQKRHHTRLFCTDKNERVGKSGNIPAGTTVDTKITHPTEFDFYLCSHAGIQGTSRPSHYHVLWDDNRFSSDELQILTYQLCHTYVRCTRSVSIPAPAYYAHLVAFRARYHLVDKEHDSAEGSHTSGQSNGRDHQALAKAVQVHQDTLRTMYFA

B1: miR-7 guide (22 nt) / fully complementary target (dsRNA)
RNA 1: UGGAAGACUAGUGAUUUUGUUG
RNA 2: UUUCAACAAAAUCACUAGUCUUCCAAAU
modifications: guide 5'-phosphate; target nt 1-3 (U) and 26-27 (A) 2'-O-methyl; 3'-terminal nt is deoxyuridine with 5-octadiynyl
  binding result: binds
